According to US20240317816A1, “PEPTIDES FOR IMMUNOTHERAPY” (Genevive, Inc., priority 2021, published 2024):
Where no end group is shown, it is not given here.

Assays:
[1] = biological target: T1, human chemokine (C-X-C motif) receptor 3 (Homo sapiens, UniProt P49682); assay: Positive allosteric modulator assay method 1 (PAM1), Tango CXCR3-bla U2OS; format: cell-based; settings: retro-inverso peptide vs SG-3-00802
T1 construct: TEV protease site; Gal4-VP16 transcription factor ('Ga14-VP16' [sic]); Tango cell line; host or cells: Tango GPCR-bla U2OS
T1 sequence (P49682 1-368): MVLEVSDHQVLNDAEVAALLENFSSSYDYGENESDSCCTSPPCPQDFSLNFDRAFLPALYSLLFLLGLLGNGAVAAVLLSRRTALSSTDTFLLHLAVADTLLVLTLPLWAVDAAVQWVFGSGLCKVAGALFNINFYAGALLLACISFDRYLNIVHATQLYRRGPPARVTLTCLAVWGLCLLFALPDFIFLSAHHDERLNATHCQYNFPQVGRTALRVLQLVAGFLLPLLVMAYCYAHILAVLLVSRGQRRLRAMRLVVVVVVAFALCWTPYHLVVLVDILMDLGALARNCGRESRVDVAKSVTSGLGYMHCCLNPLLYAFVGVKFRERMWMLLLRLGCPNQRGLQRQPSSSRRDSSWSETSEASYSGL
Text: To assay positive allosteric modulator activity of SG-3-00802 (SEQ ID NO: 1) and SG-3-006683 in CXCR3 cell lines, the cell line Tango™ CXCR3-bla U2OS was used in a positive allosteric modulator assay with two different methods, as described below.
(§1) Tango™ CXCR3-bla U2OS cells contain the human chemokine (C-X-C motif) receptor 3 linked to a TEV protease site and a Ga14-VP16 transcription factor stably integrated into the Tango™ GPCR-bla U2OS cell line. This parental cell line stably expresses a beta-arrestin/TEV protease fusion protein and the beta-lactamase reporter gene under the control of a UAS response element. The Tango™ CXCR3-bla U2OS cells have been functionally validated for a response to I-TAC (CXCL11).
In positive allosteric modulator assay method 1 (PAM1), cells were diluted in Assay Media to an appropriate cell density and were added to the assay plate. Peptides were added at increasing concentrations (1 nM-20 mcM) to the cells in the assay plate and incubated for 30 minutes. Ligand (CXCL9, CXCL10, or CXCL11) was added at an EC20 to all wells containing test compound. The assay plate was incubated for 16 hours at 37° C. Substrate Loading Solution was added to the assay plate and incubated for 2 hours at room temperature, in the dark. The assay plate was read on a fluorescence plate reader and the data was analyzed. PAM activity was calculated as follows:
% of PAM=((Test compound−Unstimulated)/(Stimulated−Unstimulated))×100.

[2] = tested on: Unstimulated human T cells; assay: Transwell T cell migration towards CXCR3 ligands; format: cell-based; settings: CXCL11, 2.5 hours
Experimental: T cell migration towards CXCR3 ligands in the presence of SG-3-00802 and SG-3-06683 was tested using a Transwell migration assay. Suboptimal concentrations of each ligand (CXCR3 ligands CXCL9, CXCL10, and CXCL11) were added to the bottom of the transwell with increasing doses of SG-3-00802 or SG-3-006683. An optimal concentration of ligand was used as positive control, as indicated in the graphs.
Unstimulated human T cells were resuspended in AIM V serum-free media, then were added to the top chamber of a […] polycarbonate Transwell insert and incubated with the indicated concentrations of the ligands and peptides in the bottom chamber for 2.5 hours at 37° C. T cells that migrated to the bottom chamber were collected, stained with anti-CD3 antibody, and counted using Beckman Coulter Cytoflex flow cytometer. 123count eBeads counting beads were added to each of the wells for obtaining the absolute cell counts.

[3] = biological target: T2, CXCR3 (Homo sapiens, UniProt P49682); assay: Positive allosteric modulator assay method 2 (PAM2), CXCR3-bla U2OS; format: cell-based; set-up: TEV protease site; Gal4-VP16 transcription factor ('Ga14-VP16' [sic]); Tango cell line; host or cells: Tango GPCR-bla U2OS; settings: varying CXCL11, fixed peptide concentration
T2 sequence (P49682 1-368): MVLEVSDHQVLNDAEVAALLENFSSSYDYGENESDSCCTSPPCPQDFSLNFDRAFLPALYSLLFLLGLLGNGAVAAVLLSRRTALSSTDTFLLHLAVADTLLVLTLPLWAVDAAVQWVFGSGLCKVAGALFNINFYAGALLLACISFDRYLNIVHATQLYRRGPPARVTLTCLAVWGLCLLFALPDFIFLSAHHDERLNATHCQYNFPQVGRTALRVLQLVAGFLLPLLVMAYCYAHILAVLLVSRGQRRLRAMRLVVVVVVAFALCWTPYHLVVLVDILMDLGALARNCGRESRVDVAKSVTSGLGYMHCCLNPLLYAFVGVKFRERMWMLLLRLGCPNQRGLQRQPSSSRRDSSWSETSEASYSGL
Text: as §1
Positive allosteric modulation was confirmed with an additional test method using a dose response setting for CXCL11. In positive allosteric modulator assay method 2 (PAM2), cells were diluted in Assay Media to an appropriate cell density, and were added to the assay plate. CXCR3-bla U2OS were stimulated with varying concentrations of CXCL11 ligand and a pre-determined fixed concentration of either SG-3-00802 or SG-3-06683 and incubated for 30 minutes. Ligand (CXCL9, CXCL10, or CXCL11) was added at increasing concentrations to wells containing the test compound.

[4] = biological target: T3, human chemokine (C-X-C motif) receptor 3 (human, UniProt P49682 1-368); assay: hit of DualSystems LRC-TriCEPS capture and SelectScreen reporter assay, confirmed in PathHunter beta-arrestin GPCR panel
T3 construct: whole, on cells; The PathHunter gpcrMAX panel uses a different, undescribed construct; also called CXCR3
T3 sequence (looked up): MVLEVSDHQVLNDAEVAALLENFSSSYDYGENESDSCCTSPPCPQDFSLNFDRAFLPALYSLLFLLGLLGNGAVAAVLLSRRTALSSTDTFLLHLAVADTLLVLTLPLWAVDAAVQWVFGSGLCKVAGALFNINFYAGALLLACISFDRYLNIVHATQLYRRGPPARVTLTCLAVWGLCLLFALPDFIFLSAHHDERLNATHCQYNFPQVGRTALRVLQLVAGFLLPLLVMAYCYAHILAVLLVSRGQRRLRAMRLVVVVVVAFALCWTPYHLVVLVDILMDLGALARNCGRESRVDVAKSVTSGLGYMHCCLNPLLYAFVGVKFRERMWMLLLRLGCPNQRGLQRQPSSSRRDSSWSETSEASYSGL

Molecule | Activation of CXCR3 [1] | T cell migration to suboptimal level of ligand [2] | activity of CXCL11 on the CXCR3 receptor (PAM2) [3] | binding result [4]
GQRQKHKPNECIVMVRGKRRIIKCKECMPKVSPRVKM (not fully specified; cysteine pairing not given here) [SG-3-06683] | maintained | increased migration | enhanced the activity of the endogenous ligand CXCL11 | 
MKVRPSVKPMCEKCKIIRRKGRVMVICENPKHKQRQG (also called PEP802) [SG-3-00802] |  |  |  | binds
